Reference: US20050260693A1 (MOUNT SINAI SCHOOL OF MEDICINE, published 2005)
Where no end group is shown, it is not given here. [ ]: non-standard residue; d: D form. pS = N[C@@H](COP(=O)(O)O)C(=O)O

T1: GST-322 fusion protein
T1 sequence: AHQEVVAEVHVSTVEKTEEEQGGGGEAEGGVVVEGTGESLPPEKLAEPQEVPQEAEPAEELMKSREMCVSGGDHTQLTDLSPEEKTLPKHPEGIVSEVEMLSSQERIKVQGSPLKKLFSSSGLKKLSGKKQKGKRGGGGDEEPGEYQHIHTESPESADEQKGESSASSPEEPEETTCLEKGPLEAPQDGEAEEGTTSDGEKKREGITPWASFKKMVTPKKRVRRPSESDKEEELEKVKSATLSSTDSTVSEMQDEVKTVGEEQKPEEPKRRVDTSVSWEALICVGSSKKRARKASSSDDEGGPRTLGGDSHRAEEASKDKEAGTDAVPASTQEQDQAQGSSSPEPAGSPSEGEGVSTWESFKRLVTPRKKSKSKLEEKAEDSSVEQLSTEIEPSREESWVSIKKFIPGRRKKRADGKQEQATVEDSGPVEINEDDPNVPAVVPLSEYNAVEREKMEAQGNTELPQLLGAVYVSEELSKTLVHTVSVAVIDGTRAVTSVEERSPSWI

T2: GST-322 prephosphorylated by PKC
T2 sequence: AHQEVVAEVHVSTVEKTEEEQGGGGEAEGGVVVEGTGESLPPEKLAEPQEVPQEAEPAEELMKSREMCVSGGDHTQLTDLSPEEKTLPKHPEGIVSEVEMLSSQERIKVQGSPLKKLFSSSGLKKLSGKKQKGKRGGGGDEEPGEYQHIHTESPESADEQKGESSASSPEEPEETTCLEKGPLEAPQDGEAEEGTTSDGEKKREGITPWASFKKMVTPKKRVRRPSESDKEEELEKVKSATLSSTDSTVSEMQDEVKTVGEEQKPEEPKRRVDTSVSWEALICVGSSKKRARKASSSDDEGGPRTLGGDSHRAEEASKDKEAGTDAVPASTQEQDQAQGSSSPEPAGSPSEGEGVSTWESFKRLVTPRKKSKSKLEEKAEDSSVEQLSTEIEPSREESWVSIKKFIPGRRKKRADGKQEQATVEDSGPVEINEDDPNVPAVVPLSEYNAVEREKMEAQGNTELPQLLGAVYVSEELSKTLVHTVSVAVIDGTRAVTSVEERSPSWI


Key:
GST-322 fusion protein = test system: T1, GST-322 fusion protein
[1] = test system: T2, GST-322 prephosphorylated by PKC; assay: GST pull-down of PKC with phosphatidylserine; against the unphosphorylated fusion protein
[2] = target: T3, cyclin D1 (endogenous and ectopic) of S24, S24/D1, S24/V and V3 cells (UniProt P25322 1-295); assay: cell-based or functional assay
[3] = target: cyclin D1 (endogenous and ectopic) of S24, S24/D1, S24/V and V3 cells (UniProt P25322); assay: GST pull-down with mutated GST-SSeCKS2
[4] = target: T3, cyclin D1 (endogenous and ectopic) of …; assay: cell-based or functional assay; remark: listed apart in the source

T3 sequence (P25322 whole entry): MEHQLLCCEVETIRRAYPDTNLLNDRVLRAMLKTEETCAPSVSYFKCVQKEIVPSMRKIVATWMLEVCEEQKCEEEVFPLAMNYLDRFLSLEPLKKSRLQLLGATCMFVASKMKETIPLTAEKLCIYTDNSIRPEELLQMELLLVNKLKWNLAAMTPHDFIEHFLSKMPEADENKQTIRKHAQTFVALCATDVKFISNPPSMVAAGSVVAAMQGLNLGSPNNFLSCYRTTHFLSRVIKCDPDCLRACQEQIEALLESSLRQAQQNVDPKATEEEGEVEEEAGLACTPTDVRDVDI
Sequence of cyclin D1 (endogenous and ectopic) of S24, S24/D1, S24/V and V3 cells (UniProt P25322) (P25322 whole entry): as above

| Molecule | % of cells showing nuclear staining of cyclin D1, S24/D1, -TET, peptide 100 µg/ml for 4 h [2] [%] | reduction of cyclin D1 binding against wild-type GST-SSeCKS2 [3] [%] | other results |
| --- | --- | --- | --- |
| purified rabbit brain PKC |  |  | in vitro phosphorylation by PKC ([32P]ATP, SDS-PAGE and autoradiography) (GST-322 fusion protein): purified rat brain PKC containing α, β, and δ isoforms could phosphorylate GST-322 protein in vitro; fold decrease of binding after prephosphorylation by PKC [1]: Prephosphorylation of GST-322 by PKC decreases this binding at least 10-fold |
| GST-SSeCKS2 with upstream KK mutated to SS (protein, not shown: a dimerising Fc or GST) AHQEVVAEVHVSTVEKTEEEQGGGGEAEGGVVVEGTGESLPPEKLAEPQEVPQEAEPAEELMKSREMCVSGGDHTQLTDLSPEEKTLPKHPEGIVSEVEMLSSQERIKVQGSPLSSLFSSSGLKKLSGKKQKGKRGGGGDEEPGEYQHIHTESPESADEQKGES |  | 70 |  |
| GST-SSeCKS2 with downstream KK mutated to SS (protein, not shown: a dimerising Fc or GST) AHQEVVAEVHVSTVEKTEEEQGGGGEAEGGVVVEGTGESLPPEKLAEPQEVPQEAEPAEELMKSREMCVSGGDHTQLTDLSPEEKTLPKHPEGIVSEVEMLSSQERIKVQGSPLKKLFSSSGLSSLSGKKQKGKRGGGGDEEPGEYQHIHTESPESADEQKGES |  | 70 |  |

Now from value to molecule, other results behind:

| % of cells showing nuclear staining of cyclin D1, S24/D1, -TET, peptide 100 µg/ml for 4 h [2] [%] | reduction of cyclin D1 binding against wild-type GST-SSeCKS2 [3] [%] | Molecule | other results |
| --- | --- | --- | --- |
| 30 |  | RQIKIWFQNRRMKWKKLSSSFSSSGLSSSSGK (also: N-terminal biotin on half of the product) [penetratin-linked mutated CY peptide (K→S)] |  |
| 39 |  | RQIKIWFQNRRMKWKKLKKLF[pS]SSGLKKL[pS]GK (also: N-terminal biotin on half of the product) [penetratin-linked phosphoserine CY peptide] |  |
| 82 |  | RQIKIWFQNRRMKWKKLKKLFSSSGLKKLSGK (also: N-terminal biotin on half of the product) [penetratin-linked wt SSeCKS CY peptide] | increase in cyclin D translocation to nuclei, S24/D1 cells incubated 4 h with peptide [4]: ~2 fold |
